Laboratory results from article PMC3672946 (Nature, 2013).

T1: Nqo8 (Thermus thermophilus, UniProt Q60019 1-365)
T1 sequence (looked up): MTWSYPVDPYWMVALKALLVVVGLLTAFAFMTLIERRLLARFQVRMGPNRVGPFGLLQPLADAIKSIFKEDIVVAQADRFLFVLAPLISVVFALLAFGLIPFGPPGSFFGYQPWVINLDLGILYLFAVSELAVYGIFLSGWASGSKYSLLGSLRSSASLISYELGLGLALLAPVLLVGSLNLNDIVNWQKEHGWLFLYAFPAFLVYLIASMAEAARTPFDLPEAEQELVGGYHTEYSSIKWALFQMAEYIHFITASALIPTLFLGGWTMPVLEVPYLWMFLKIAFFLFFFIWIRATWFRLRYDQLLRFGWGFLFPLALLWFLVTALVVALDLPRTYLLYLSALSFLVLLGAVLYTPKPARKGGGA

T2: Nqo10 (Thermus thermophilus, UniProt Q56225 1-176)
T2 sequence (looked up): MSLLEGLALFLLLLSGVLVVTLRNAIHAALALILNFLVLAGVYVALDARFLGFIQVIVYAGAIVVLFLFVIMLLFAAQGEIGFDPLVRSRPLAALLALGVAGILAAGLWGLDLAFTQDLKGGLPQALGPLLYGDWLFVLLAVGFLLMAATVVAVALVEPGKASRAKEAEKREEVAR

T3: Nqo12 (Thermus thermophilus, UniProt Q56227 1-606)
T3 sequence (looked up): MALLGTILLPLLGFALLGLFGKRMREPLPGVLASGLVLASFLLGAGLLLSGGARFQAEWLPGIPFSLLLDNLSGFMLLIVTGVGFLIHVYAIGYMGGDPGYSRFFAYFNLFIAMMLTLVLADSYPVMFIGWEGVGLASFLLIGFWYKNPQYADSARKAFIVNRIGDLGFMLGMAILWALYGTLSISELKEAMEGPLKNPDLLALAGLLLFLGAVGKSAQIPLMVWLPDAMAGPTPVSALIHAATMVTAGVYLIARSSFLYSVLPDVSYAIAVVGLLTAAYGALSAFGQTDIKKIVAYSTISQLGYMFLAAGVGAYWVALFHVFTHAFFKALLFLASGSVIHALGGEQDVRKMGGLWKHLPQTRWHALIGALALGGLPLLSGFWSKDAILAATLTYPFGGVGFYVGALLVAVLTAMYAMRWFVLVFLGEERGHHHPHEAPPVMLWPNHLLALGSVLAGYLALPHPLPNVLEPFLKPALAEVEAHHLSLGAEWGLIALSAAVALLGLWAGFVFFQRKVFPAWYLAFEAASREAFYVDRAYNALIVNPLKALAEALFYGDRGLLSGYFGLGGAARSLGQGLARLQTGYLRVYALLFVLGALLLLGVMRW

B1: Nqo7 (natural protein, Thermus thermophilus, UniProt Q56217 1-119, looked up)
chain: MAPIQEYVGTLIYVGVALFIGVAALLVGALLGPKKPGRAKLMPYESGNDPAGEVKRFPVHFYVVAMLFILFDVEVAFLWPYAVSAGGLGLYGFLGVLAFTLLLFVGFLYEWWKGVMRWH
B2: Nqo11 (natural protein, Thermus thermophilus, UniProt Q56226 1-95, looked up)
chain: MSYLLTSALLFALGVYGVLTRRTAILVFLSIELMLNAANLSLVGFARAYGLDGQVAALMVIAVAAAEVAVGLGLIVAIFRHRESTAVDDLSELRG
B3: Nqo13 (natural protein, Thermus thermophilus, UniProt Q56228 1-469, looked up)
chain: MVVLAVLLPVVFGALLLLGLPRALGVLGAGLSFLLNLYLFLTHPGGVAHAFQAPLLPGAGVYWAFGLDGLSALFFLTIALTVFLGALVARVEGRFLGLALLMEGLLLGLFAARDLLVFYVFFEAALIPALLMLYLYGGEGRTRALYTFVLFTLVGSLPMLAAVLGARLLSGSPTFLLEDLLAHPLQEEAAFWVFLGFALAFAIKTPLFPLHAWLPPFHQENHPSGLADALGTLYKVGVFAFFRFAIPLAPEGFAQAQGLLLFLAALSALYGAWVAFAAKDFKTLLAYAGLSHMGVAALGVFSGTPEGAMGGLYLLAASGVYTGGLFLLAGRLYERTGTLEIGRYRGLAQSAPGLAALALILFLAMVGLPGLSGFPGEFLTLLGAYKASPWLAALAFLSVIASAAYALTAFQKTFWEEGGSGVKDLAGAEWGFALLSVLALLLMGVFPGYFARGLHPLAEAFAKLLGGGA
B4: Nqo14 (natural protein, Thermus thermophilus, UniProt Q56229 1-427, looked up)
chain: MTLAILAVFSVALTLLGFVLPPQGVKRATLLGLALALASLLLTWGKPFAFGPYAVDGVSQVFTLLALLGALWTVGLVRSGRFEFYLLVLYAALGMHLLASTRHLLLMLVALEALSLPLYALATWRRGQGLEAALKYFLLGALAAAFFLYGAALFYGATGSLVLGAPGEGPLYALALGLLLVGLGFKAALAPFHFWTPDVYQGSPTPVVLFMATSVKAAAFAALLRVAAPPEALALLVALSVVVGNLAALAQKEAKRLLAYSSIAHAGYMALALYTGNAQALGFYLLTYVLATGLAFAVLSQISPDRVPLEALRGLYRKDPLLGLAFLVAMLSLLGLPPLAGFWGKYLAFAEAARAGAWGVLVLALVTSAVSAYYYLGLGLAVFARPEETPFRPGPPWARAAVVAAGVLLLALGLLPGLVLPALAAGG

Legend:
Test in all cases: crystal structure
Nqo8 = molecular target: T1, Nqo8
Nqo14 = molecular target: B4
Nqo10 = molecular target: T2, Nqo10
Nqo12 = molecular target: T3, Nqo12

Binder: B1
binding result (Nqo8): binds

Binder: B2
binding result (Nqo14): binds | binding result (Nqo10): binds

Binder: B3
binding result (Nqo12): binds

Binder: B4
binding result (Nqo12): binds
